Source: patent US20210188968A1 (AB2 BIO, published 2021)
Positions count from the first letter of the chain named.

T1: recombinant human interleukin-18 (human, UniProt Q14116 37-193)
T1 construct: Commercially available recombinant human IL-18; also called IL-18; free IL-18
T1 sequence (looked up): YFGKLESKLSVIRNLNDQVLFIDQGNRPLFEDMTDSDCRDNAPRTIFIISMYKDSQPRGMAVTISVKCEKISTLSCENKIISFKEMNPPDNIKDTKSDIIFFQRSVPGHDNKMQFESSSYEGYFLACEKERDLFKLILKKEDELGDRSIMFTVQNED

T2: IL-18/IL-18BP complex (human, UniProt Q14116 37-193)
T2 construct: Non-covalent 1:1 complex; In the third screening step IL-18BP was linked to Luminex beads and then complexed to IL-18; also called IL-18 previously complexed to IL-18BP; complex IL-18-IL-18BP
T2 sequence 1: T1 sequence (looked up)
T2 sequence 2: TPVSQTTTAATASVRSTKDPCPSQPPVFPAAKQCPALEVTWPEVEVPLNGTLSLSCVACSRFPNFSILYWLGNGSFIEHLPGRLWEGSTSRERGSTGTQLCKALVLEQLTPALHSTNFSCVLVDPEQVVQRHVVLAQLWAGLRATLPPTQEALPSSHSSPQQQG

B1: Antibody 107C6 (antibody, V domains shown)
VH: QIQLVQSGPELKKPGETVKLSCRASGYTFTNYGMNWVKQAPGKGLKWMGWINTYSGVPTYADDFKGQFAFSLETSAATAFLQINNLKDEDTATYFCAREGYSTTRSMDYWGQGTSVTVSS
VL: DIVMSQSPSSLAVSAGEKVTMSCKSSQSLLDSRTRKNYLVWYQQKPGQSPKLLIYWASTRGSGVPDRFTGSGSGTDFTLTISSVQAEDLAVYYCKQSYNLRTFGGGTKLEIK
notes: Mouse hybridoma monoclonal antibody; also called clone #107C6
B2: Antibody 108F8 (antibody, V domains shown)
VH: B1 VH with E10D, L11S
VL: B1 VL
notes: Mouse hybridoma monoclonal antibody
B3: Antibody 109A6 (antibody, V domains shown)
VH: EVQLQQSGAELVKPGASVKLSCTASGFKIKDTYIHWVIQRPAQGLEWIGRIDPANGNTIYGSKFQGKATLTADTSSNTAYIHLSSLTSGDSAVYYCAGYVWFAYWGQGTLVTVSA
VL: DVVMTQVPLSLPVSLGDQASISCRSSQRLVHSNGNTYLHWFLQKPGQSPKLLIYTVSNRFSGVPDRFSGSGSGTDFTLKISRVEAEDLGVYFCSQSTLVPWTFGGGTKLEIK
notes: as for B2
B4: Antibody 131B4-2 (antibody, V domains shown)
VH: B3 VH with V37L, I38K, A42E, L70I, H82Q, S91T, Y95F
VL: DAVLTQTPLSLPVSLGDQASISCTSSQSLVHSNGNTYLHWYLQKPGQSPKLLIYKVSDRFSGVPDRFSGSGSGTDFTLMITRVEAEDLGVYFCSQSSLVPWTFGGGTKLEVK
notes: Mouse monoclonal antibody obtained on clone dilution
B5: recombinant human IL-18 Binding Protein (r-hIL-18BP), isoform a (other)
chain: T2 sequence 2
notes: It was biotinylated in the second screening step and linked to Luminex beads in the third; also called human IL-18BP; IL-18BPa
B6: Antibody 132H4 (antibody, V domains shown)
VH: EVKLVESGGGLVKPGGSLKLSCAASGFTFSNYAMSWVRQNPAKRLEWVATISSGGANIYYPDSVKGRFIISRDNARNTLYLQMSSLRSEDTAMYYCARGDYFNHFWFAYWGQGTLVTVSA
VL: DVLMTQTPLSLPVSLGDQASISCRSSQSIVHSNGNTYLEWYLQKPGQSPKFLIYKVSNRFSGVPDRFSGSGSGTDFTLKINRVEAEDLGIYYCFQGSHVPWTFGGGTKLEIK
notes: as for B2

Tests used:
[1] = target: T1, recombinant human interleukin-18; experiment: Luminex, antibody on IL-18 beads
Description: Following immunization, B cells were isolated from spleen and hybridized following standard hybridoma technology. […] The screening was performed in 3 sequential and selective steps: [1253] First step. […] [1254] Second step. […] For this, monoclonal antibodies were bound to Luminex beads carrying IL-18. […] [1255] Third step.

[2] = target: T1, recombinant human interleukin-18; experiment: Luminex, biotinylated IL-18BP (competitor) on IL-18 beads pre-complexed with the antibody
IL-18/IL-18BP complex [3] = target: T2, IL-18/IL-18BP complex; experiment: Luminex, third screening against first screening
[4] = target: T1, recombinant human interleukin-18; experiment: titration of antibody with a defined IL-18 molarity; KD from EC50 by Law of Mass Action; mean
Description: (§1) The respective KD values of each monoclonal antibody was calculated following titration of the antibodies with a defined IL-18 molarity and derived from the obtained EC₅₀ values with the Law of Mass Action (see above).

IL-18/IL-18BP complex [5] = target: T2, IL-18/IL-18BP complex; experiment: Luminex, antibody on IL-18 presented by IL-18BP-linked beads
[6] = target: T1, recombinant human interleukin-18; experiment: titration of antibody with a defined IL-18 molarity; KD from EC50 by Law of Mass Action
Description: as §1

[7] = target: T1, recombinant human interleukin-18; experiment: after clone dilution; method not detailed
[8] = target: T1, recombinant human interleukin-18; experiment: free IL-18 ELISA (IL-18BP-coated plate); 400 pg/mL IL-18 in PBS/5% BSA spiked with 0-10000 pg/mL IL-18BP
Description: A description of the purification protocol is provided in section 6.6.2. Plates are incubated for a period of time at 4° C. and then stabilized with a blocking buffer containing bovine serum albumin or other appropriate blocking agents. Once the reaction is finished, microplates are sealed and stored at 4° C. until used for detection of free IL-18. Microplates can also be dried in a stabilizing solution allowing storage at room temperature and then be reconstituted by hydration when needed for assay.

[9] = target: T1, recombinant human interleukin-18; experiment: competition in solution: 400 pg/ml IL-18 spiked with rising IL-18BP; remaining free IL-18 detected by ELISA with plate-bound IL-18BP as capture

| Binder | Fluorescence intensity [1] | Fluorescence intensity of IL-18BP binding [2] | fold inhibition of binding on IL-18 complexed to IL-18BP against binding on IL-18 (IL-18/IL-18BP complex [3]) | Kd [4] | Fluorescence intensity (IL-18/IL-18BP complex [5]) | Kd [6] | binding result [7] | molar ratio IL-18BP/IL-18 at which free IL-18 is near background [8] | IC50 (read off the curve) [9] |
| --- | --- | --- | --- | --- | --- | --- | --- | --- | --- |
| B1 | 26200 fluorescence intensity | 1390 fluorescence intensity | > 500 fold | < 2 pM | 33 fluorescence intensity | < 2 pM |  |  |  |
| B2 | 25100 fluorescence intensity | 1290 fluorescence intensity | > 500 fold | < 2 pM | 45 fluorescence intensity | < 2 pM |  |  |  |
| B3 | 25800 fluorescence intensity | 913 fluorescence intensity | > 500 fold | 10 pM | 33 fluorescence intensity | 10 pM |  |  |  |
| B4 |  |  |  |  |  |  | binds |  |  |
| B5 |  |  |  |  |  |  |  | ~15 fold | ~2 ng/mL |
| B6 | 23800 fluorescence intensity | 1490 fluorescence intensity | > 500 fold | 5 pM | 28 fluorescence intensity | 5 pM |  |  |  |
